The values below come from patent publication US9677045B2, “Microorganisms and methods for production of 4-hydroxybutyrate, 1,4-butanediol and related compounds” (priority 2012, dated 2017).

Like-named read-outs stand apart in the source and are kept apart here. Marks after values point to notes of the source that are not given here.

The target in series [1] is T1, L(+)-lactate dehydrogenase from A. eutrophus (R. eutropha ldhA) (Cupriavidus necator, UniProt Q07251).
T1 sequence (Q07251 1-349): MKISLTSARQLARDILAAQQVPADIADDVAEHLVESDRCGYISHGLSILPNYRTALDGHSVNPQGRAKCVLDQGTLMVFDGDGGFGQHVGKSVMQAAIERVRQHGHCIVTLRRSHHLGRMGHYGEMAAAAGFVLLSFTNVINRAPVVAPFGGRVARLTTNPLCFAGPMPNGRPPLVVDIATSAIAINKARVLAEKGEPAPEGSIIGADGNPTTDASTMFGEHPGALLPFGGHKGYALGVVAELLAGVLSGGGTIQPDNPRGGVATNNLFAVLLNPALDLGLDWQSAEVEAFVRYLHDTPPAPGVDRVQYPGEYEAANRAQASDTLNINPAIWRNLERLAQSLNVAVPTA
To be noted: compared with that on pyruvate; cited from earlier work.

In series [2] the test system is alcohol dehydrogenase from Brevibacterium sp KU 1309. To be noted: reduction of carbonyl compounds; cited from earlier work.
The test system of series [3] is alcohol dehydrogenase from Brevibacterium sp KU. To be noted: oxidation of alcohols; activity of 2-phenylethanol taken as 100%; cited from earlier work.
The subject of series [4] is cytochrome oxidases from E. coli. To be noted: cited from earlier work; for Km: read-out: Km for O2.
The conditions of series [5]: cytoplasmic pH, typically 7.4; cited from earlier work.
The target in series [6] is T2, endogenous alcohol dehydrogenase (yjgB) (Escherichia coli, UniProt P27250).
T2 sequence (P27250 1-339): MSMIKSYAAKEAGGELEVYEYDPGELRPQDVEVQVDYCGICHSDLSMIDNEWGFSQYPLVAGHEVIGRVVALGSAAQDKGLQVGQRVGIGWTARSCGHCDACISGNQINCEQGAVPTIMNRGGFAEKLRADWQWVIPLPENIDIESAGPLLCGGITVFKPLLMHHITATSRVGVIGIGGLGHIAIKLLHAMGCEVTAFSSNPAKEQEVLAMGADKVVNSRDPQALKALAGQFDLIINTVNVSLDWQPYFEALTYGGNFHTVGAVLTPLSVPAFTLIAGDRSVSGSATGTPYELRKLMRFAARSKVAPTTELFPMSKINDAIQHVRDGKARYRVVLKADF
To be noted: purified protein, in the presence of NADP+; FIG. 85.
Experimental: The sample was purified while following the backflux activity.
A fresh sample of 1427 cells from a 2 L LB preparation grown aerobically overnight was lysed using the microfluidizer at 15,000 psi. The sample was then fractionated via ammonium sulfate.
The 60% ammonium sulfate pellet was resuspended in a low salt buffer and dialyzed overnight to remove the residual ammonium sulfate. The sample was loaded onto a 5 ml Q-sepharose column (strong anion exchange) and eluted via a slow increasing salt gradient.
The peak backflux activity from anion exchange was pooled and concentrated to allow for application to a S200 sephacryl size exclusion column.
The peak with the highest backflux activity from the size exclusion column was pooled and loaded on a phenyl sepharose column (hydrophobic interaction column). The ionic strength of the sample was increased to facilitate binding to the resin.

Series [7] deals with NADH dehydrogenases and cytochrome oxidases. To be noted: aerobic growth, from Noguchi et al., 2004, cited from earlier work.
Setting [8] is: host strain ECKh-432 with pZS*13S plasmid, culture supernatant, micro-aerobic.

For orientation: Km means the concentration of substrate that gives half-maximal velocity.

Experimental for 1,4-butanediol pathway: Ten mL micro-aerobic cultures were started by inoculating fresh minimal in vivo conversion medium (see below) containing the appropriate antibiotics with 1% of the first cultures.
Microaerobic conditions were established by initially flushing capped anaerobic bottles with nitrogen for 5 minutes, then piercing the septum with an 18G needle following inoculation. The needle was kept in the bottle during growth to allow a small amount of air to enter the bottles. Protein expression was induced with 0.2 mM IPTG when the culture reached mid-log growth phase. This is considered: time=0 hr.

In the case of `O=CC(=O)O` [Glyoxylate], in series [1], the “Activity (%) of L(+)-lactate dehydrogenase from A. eutrophus” value (from here on “Activity (%)”) is 8.7%. In the case of `O=CCc1ccccc1` [Phenylacetaldehyde], the Km in series [2] was 261 µM.

As for `CC(C=O)c1ccccc1` (stereo not drawn) [2-Phenylpropionaldehyde], the Km in series [2] was 864 µM. With `CCCCCCCCCCCCO` [Sample 1-Dodecanol, 1-Dodecanol], the “Relative Activity” value in series [3] is listed as 68 0%.

Turning to `CC(C)O` [Sample 2-Propanol, 2-Propanol], in series [3], the “Relative Activity” value is 54 0%. On to `CC(O)c1ccccc1` (stereo not drawn) [1-Phenylethanol], for which the “Relative Activity” value in series [3] is given as 46 0%. Take `CC(C)CC(=O)C(=O)O` [4-Methyl-2-oxopentanoate]: the “Activity (%)” value in series [1] is 39.0%. For `CCC(C)C(=O)C(=O)O` (stereo not drawn) [3-Methyl-2-oxovalerate], the “Activity (%)” value in series [1] is reported as 5.3%. As for `C[C@@H](CO)c1ccccc1` [(R)-2-Phenylpropanol], the “Relative Activity” value in series [3] is 63 0%. In the case of “cytochrome bd oxidase: E. coli cytochrome bd oxidase (cyd operon)”, the Km in series [4] was 10 nM.

With `CCO` [Ethanol], in series [3], the “Relative Activity” value was 76 0%. On to `O=C1CCCO1` [GBL, γ-butyrolactone], for which, in series [5], the lactone/hydroxyacid equilibrium result is given as “hydrolysis of the GBL lactone is favored”.

B1: cytochrome bo oxidase: E. coli cytochrome bo oxidase (cyo operon) (protein, UniProt P0ABJ1 25-315; P0ABI8 1-663; P0ABJ3 1-204; P0ABJ6 1-109, looked up)
Cytochrome bo(3) ubiquinol … 1: CNSALLDPKGQIGLEQRSLILTAFGLMLIVVIPAILMAVGFAWKYRASNKDAKYSPNWSHSNKVEAVVWTVPILIIIFLAVLTWKTTHALEPSKPLAHDEKPITIEVVSMDWKWFFIYPEQGIATVNEIAFPANTPVYFKVTSNSVMNSFFIPRLGSQIYAMAGMQTRLHLIANEPGTYDGISASYSGPGFSGMKFKAIATPDRAAFDQWVAKAKQSPNTMSDMAAFEKLAAPSEYNQVEYFSNVKPDLFADVINKFMAHGKSMDMTQPEGEHSAHEGMEGMDMSHAESAH
Cytochrome bo(3) ubiquinol … 2: MFGKLSLDAVPFHEPIVMVTIAGIILGGLALVGLITYFGKWTYLWKEWLTSVDHKRLGIMYIIVAIVMLLRGFADAIMMRSQQALASAGEAGFLPPHHYDQIFTAHGVIMIFFVAMPFVIGLMNLVVPLQIGARDVAFPFLNNLSFWFTVVGVILVNVSLGVGEFAQTGWLAYPPLSGIEYSPGVGVDYWIWSLQLSGIGTTLTGINFFVTILKMRAPGMTMFKMPVFTWASLCANVLIIASFPILTVTVALLTLDRYLGTHFFTNDMGGNMMMYINLIWAWGHPEVYILILPVFGVFSEIAATFSRKRLFGYTSLVWATVCITVLSFIVWLHHFFTMGAGANVNAFFGITTMIIAIPTGVKIFNWLFTMYQGRIVFHSAMLWTIGFIVTFSVGGMTGVLLAVPGADFVLHNSLFLIAHFHNVIIGGVVFGCFAGMTYWWPKAFGFKLNETWGKRAFWFWIIGFFVAFMPLYALGFMGMTRRLSQQIDPQFHTMLMIAASGAVLIALGILCLVIQMYVSIRDRDQNRDLTGDPWGGRTLEWATSSPPPFYNFAVVPHVHERDAFWEMKEKGEAYKKPDHYEEIHMPKNSGAGIVIAAFSTIFGFAMIWHIWWLAIVGFAGMIITWIVKSFDEDVDYYVPVAEIEKLENQHFDEITKAGLKNGN
Cytochrome bo(3) ubiquinol … 3: MATDTLTHATAHAHEHGHHDAGGTKIFGFWIYLMSDCILFSILFATYAVLVNGTAGGPTGKDIFELPFVLVETFLLLFSSITYGMAAIAMYKNNKSQVISWLALTWLFGAGFIGMEIYEFHHLIVNGMGPDRSGFLSAFFALVGTHGLHVTSGLIWMAVLMVQIARRGLTSTNRTRIMCLSLFWHFLDVVWICVFTVVYLMGAM
Cytochrome bo(3) ubiquinol … 4: MSHSTDHSGASHGSVKTYMTGFILSIILTVIPFWMVMTGAASPAVILGTILAMAVVQVLVHLVCFLHMNTKSDEGWNMTAFVFTVLIIAILVVGSIWIMWNLNYNMMMH
As to B1, in series [4], the Km is ~1000 nM.

B2: Cytochrome bo (protein, UniProt P0ABJ1 25-315; P0ABI8 1-663; P0ABJ3 1-204; P0ABJ6 1-109, looked up)
Cytochrome bo(3) ubiquinol … 1: B1 Cytochrome bo(3) ubiquinol … 1
Cytochrome bo(3) ubiquinol … 2: B1 Cytochrome bo(3) ubiquinol … 2
Cytochrome bo(3) ubiquinol … 3: B1 Cytochrome bo(3) ubiquinol … 3
Cytochrome bo(3) ubiquinol … 4: B1 Cytochrome bo(3) ubiquinol … 4
Regarding B2, the Vmax in series [4] (from Bekker et al., 2009) is listed as 225^c mol O/mol cytochrome bd/s.

B3: GNM_720: car gene, carboxylic acid reductase from Nocardia iowensis (protein, listed as Nocardia iowensis)
chain: MAVDSPDERLQRRIAQLFAEDEQVKAARPLEAVSAAVSAPGMRLAQIAATVMAGYADRPAAGQRAFELNTDDATGRTSLRLLPRFETITYRELWQRVGEVAAAWHHDPENPLRAGDFVALLGFTSIDYATLDLADIHLGAVTVPLQASAAVSQLIAILTETSPRLLASTPEHLDAAVECLLAGTTPERLVVFDYHPEDDDQRAAFESARRRLADAGSLVIVETLDAVRARGRDLPAAPLFVPDTDDDPLALLIYTSGSTGTPKGAMYTNRLAATMWQGNSMLQGNSQRVGINLNYMPMSHIAGRISLFGVLARGGTAYFAAKSDMSTLFEDIGLVRPTEIFFVPRVCDMVFQRYQSELDRRSVAGADLDTLDREVKADLRQNYLGGRFLVAVVGSAPLAAEMKTFMESVLDLPLHDGYGSTEAGASVLLDNQIQRPPVLDYKLVDVPELGYFRTDRPHPRGELLLKAETTIPGYYKRPEVTAEIFDEDGFYKTGDIVAELEHDRLVYVDRRNNVLKLSQGEFVTVAHLEAVFASSPLIRQIFIYGSSERSYLLAVIVPTDDALRGRDTATLKSALAESIQRIAKDANLQPYEIPRDFLIETEPFTIANGLLSGIAKLLRPNLKERYGAQLEQMYTDLATGQADELLALRREAADLPVLETVSRAAKAMLGVASADMRPDAHFTDLGGDSLSALSFSNLLHEIFGVEVPVGVVVSPANELRDLANYIEAERNSGAKRPTFTSVHGGGSEIRAADLTLDKFIDARTLAAADSIPHAPVPAQTVLLTGANGYLGRFLCLEWLERLDKTGGTLICVVRGSDAAAARKRLDSAFDSGDPGLLEHYQQLAARTLEVLAGDIGDPNLGLDDATWQRLAETVDLIVHPAALVNHVLPYTQLFGPNVVGTAEIVRLAITARRKPVTYLSTVGVADQVDPAEYQEDSDVREMSAVRVVRESYANGYGNSKWAGEVLLREAHDLCGLPVAVFRSDMILAHSRYAGQLNVQDVFTRLILSLVATGIAPYSFYRTDADGNRQRAHYDGLPADFTAAAITALGIQATEGFRTYDVLNPYDDGISLDEFVDWLVESGHPIQRITDYSDWFHRFETAIRALPEKQRQASVLPLLDAYRNPCPAVRGAILPAKEFQAAVQTAKIGPEQDIPHLSAPLIDKYVSDLELLQLL
For B3, in the series on 1,4-butanediol pathway, the “BDO formation in ECKh-432” value was “required for BDO formation”. Moreover, in the series on 1,4-butanediol pathway (setting [8]), the “ETOHEnz (ethanol)” value was “>LLOQ”, the “GBL (gamma-butyrolactone)” value is 0.07 mM, the “LA (lactate)” value was found to be 0.10 mM and the “SA (succinate)” value turned out to be 0.00 mM.

B4: yjgB: E. coli alcohol dehydrogenase yjgB, cloned with a streptavidin tag and purified (protein, UniProt P27250 1-339, looked up)
Aldehyde reductase Ahr: T2 sequence (P27250 1-339)
modifications: streptavidin tag
As for B4, in series [6], the “activity with BDO as a substrate” value was “robust activity was confirmed”.

B5: NDH-2 (protein, UniProt P00393 2-434, looked up)
Type II NADH:quinone …: TTPLKKIVIVGGGAGGLEMATQLGHKLGRKKKAKITLVDRNHSHLWKPLLHEVATGSLDEGVDALSYLAHARNHGFQFQLGSVIDIDREAKTITIAELRDEKGELLVPERKIAYDTLVMALGSTSNDFNTPGVKENCIFLDNPHQARRFHQEMLNLFLKYSANLGANGKVNIAIVGGGATGVELSAELHNAVKQLHSYGYKGLTNEALNVTLVEAGERILPALPPRISAAAHNELTKLGVRVLTQTMVTSADEGGLHTKDGEYIEADLMVWAAGIKAPDFLKDIGGLETNRINQLVVEPTLQTTRDPDIYAIGDCASCPRPEGGFVPPRAQAAHQMATCAMNNILAQMNGKPLKNYQYKDHGSLVSLSNFSTVGSLMGNLTRGSMMIEGRIARFVYISLYRMHQIALHGYFKTGLMMLVGSINRVIRPRLKLH
For the molecule B5, the “Concentrations of NADH dehydrogenases and cytochrome oxidase” value in series [7] (Limited glucose (early stationary)) was 0.70 ± 0.03 μmol/s/mg of protein; in series [7] (Standard glucose (early stationary: 8 h)), 0.88 ± 0.01 μmol/s/mg of protein; in series [7] (Standard glucose (exponential: 3 h)), 1.11 ± 0.06 μmol/s/mg of protein; in series [7] (Standard glucose (exponential: 5 h)) it was 0.86 ± 0.03 μmol/s/mg of protein.
